# Test results published in the supplement of paper PMC9112550, “Optimization of the antimicrobial peptide Bac7 by deep mutational scanning” (BMC Biology, 2022).
# Test system: Escherichia coli TOP10
# Assay: shrunken log2 fold change of peptide-encoding DNA abundance (4.5 h post-induction vs induction); higher = less antimicrobial activity (less host growth inhibition)
# Details: time post-induction: 4.5 h; library: site-saturation at positions 5, 18, 19, 20
# 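Note: peptides expressed intracellularly from a pBAD plasmid library in pooled LB shake-flask culture, induced with 0.3% L-arabinose, DNA abundance read by NGS, three biological replicates, DESeq2 with apeglm shrinkage.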
row,Sequence,shrunken log2 fold change
1,RRIRCRPPRLPRPRPRPFKNPRP,-0.967
2,RRIRKRPPRLPRPRPRPIAQPRP,0.208
3,RRIRNRPPRLPRPRPRPDNFPRP,-0.00141
4,RRIRARPPRLPRPRPRPTSIPRP,0.109
5,RRIRRRPPRLPRPRPRPWVIPRP,-0.125
6,RRIRSRPPRLPRPRPRPQPCPRP,2.29
7,RRIRARPPRLPRPRPRPNDKPRP,-0.129
8,RRIRMRPPRLPRPRPRPKYHPRP,-0.488
9,RRIRRRPPRLPRPRPRPLIDPRP,0.192
10,RRIRTRPPRLPRPRPRPNHRPRP,-0.209
11,RRIRGRPPRLPRPRPRPVYFPRP,-0.0244
12,RRIRRRPPRLPRPRPRPWANPRP,0.0142
13,RRIRMRPPRLPRPRPRPSGTPRP,0.215
14,RRIRDRPPRLPRPRPRPEATPRP,1.98
15,RRIRPRPPRLPRPRPRPISSPRP,-0.0101
16,RRIRLRPPRLPRPRPRPWPWPRP,0.0352
17,RRIRIRPPRLPRPRPRPFRWPRP,-0.00968
18,RRIRRRPPRLPRPRPRPPWWPRP,0.862
19,RRIRHRPPRLPRPRPRPVDNPRP,0.013
20,RRIRPRPPRLPRPRPRPLGPPRP,0.153
21,RRIRRRPPRLPRPRPRPWTEPRP,0.116
22,RRIRQRPPRLPRPRPRPVIKPRP,-0.772

row,Sequence,shrunken log2 fold change
1,RRIRKRPPRLPRPRPRPARFPRP,0.396
2,RRIRTRPPRLPRPRPRPCDTPRP,-0.116
3,RRIRTRPPRLPRPRPRPRAPPRP,0.511
4,RRIRHRPPRLPRPRPRPYEKPRP,-0.195
5,RRIRCRPPRLPRPRPRPHPFPRP,-0.0728
6,RRIRGRPPRLPRPRPRPFYCPRP,-0.0638
7,RRIRYRPPRLPRPRPRPRAMPRP,-0.0749
8,RRIRKRPPRLPRPRPRPKFVPRP,-0.0367
9,RRIRMRPPRLPRPRPRPSFNPRP,-0.535
10,RRIRSRPPRLPRPRPRPRTHPRP,0.181
11,RRIRIRPPRLPRPRPRPDLTPRP,-0.00701
12,RRIRGRPPRLPRPRPRPYFWPRP,0.0833
13,RRIRCRPPRLPRPRPRPRNNPRP,-0.282
14,RRIRKRPPRLPRPRPRPTFYPRP,0.11
15,RRIRVRPPRLPRPRPRPFWHPRP,-0.205
16,RRIRERPPRLPRPRPRPNLEPRP,-0.228
17,RRIRARPPRLPRPRPRPGQYPRP,0.0253
18,RRIRFRPPRLPRPRPRPRDTPRP,0.0411
19,RRIRNRPPRLPRPRPRPYMMPRP,-0.118
20,RRIRRRPPRLPRPRPRPQNAPRP,0.0513
21,RRIRKRPPRLPRPRPRPNIDPRP,-0.0981
22,RRIRKRPPRLPRPRPRPRPGPRP,0.721

row,Sequence,shrunken log2 fold change
1,RRIRPRPPRLPRPRPRPIIYPRP,-0.256
2,RRIRPRPPRLPRPRPRPEEPPRP,0.437
3,RRIRMRPPRLPRPRPRPWFWPRP,0.221
4,RRIRCRPPRLPRPRPRPQKVPRP,-0.127
5,RRIRPRPPRLPRPRPRPCLCPRP,-0.222
6,RRIRFRPPRLPRPRPRPMVYPRP,-0.389
7,RRIRERPPRLPRPRPRPKPGPRP,0.469
8,RRIRDRPPRLPRPRPRPLQVPRP,0.0133
9,RRIRLRPPRLPRPRPRPRPMPRP,0.725
10,RRIRRRPPRLPRPRPRPWTNPRP,0.0119
11,RRIRFRPPRLPRPRPRPCMRPRP,0.0466
12,RRIRLRPPRLPRPRPRPMVIPRP,0.036
13,RRIRIRPPRLPRPRPRPYYFPRP,-1.16
14,RRIRLRPPRLPRPRPRPCDYPRP,-0.191
15,RRIRRRPPRLPRPRPRPLIWPRP,0.192
16,RRIRPRPPRLPRPRPRPMWLPRP,0.217
17,RRIRKRPPRLPRPRPRPVNNPRP,-0.241
18,RRIRKRPPRLPRPRPRPAETPRP,0.336
19,RRIRQRPPRLPRPRPRPQTVPRP,-0.0925
20,RRIRCRPPRLPRPRPRPFPLPRP,-0.0156
21,RRIRHRPPRLPRPRPRPIGQPRP,-0.042
22,RRIRFRPPRLPRPRPRPCAKPRP,-0.0688

row,Sequence,shrunken log2 fold change
1,RRIRDRPPRLPRPRPRPLHTPRP,-0.0544
2,RRIRLRPPRLPRPRPRPLVWPRP,0.193
3,RRIRGRPPRLPRPRPRPDLSPRP,0.121
4,RRIRMRPPRLPRPRPRPRQQPRP,0.854
5,RRIRHRPPRLPRPRPRPTIMPRP,-0.362
6,RRIRSRPPRLPRPRPRPANLPRP,-0.0937
7,RRIRYRPPRLPRPRPRPFPMPRP,-0.834
8,RRIRARPPRLPRPRPRPWHSPRP,0.0528
9,RRIRCRPPRLPRPRPRPQLMPRP,0.285
10,RRIRMRPPRLPRPRPRPIAKPRP,0.494
11,RRIRNRPPRLPRPRPRPRQLPRP,0.244
12,RRIRERPPRLPRPRPRPPICPRP,-0.302
13,RRIRKRPPRLPRPRPRPSRWPRP,0.639
14,RRIRPRPPRLPRPRPRPYQYPRP,-0.292
15,RRIRFRPPRLPRPRPRPTWQPRP,0.145
16,RRIRVRPPRLPRPRPRPTEKPRP,-0.0708
17,RRIRFRPPRLPRPRPRPGCVPRP,0.15
18,RRIRNRPPRLPRPRPRPILRPRP,-0.455
19,RRIRDRPPRLPRPRPRPTFLPRP,0.196
20,RRIRTRPPRLPRPRPRPVFAPRP,0.214
21,RRIRRRPPRLPRPRPRPLCSPRP,-0.255
22,RRIRWRPPRLPRPRPRPPRHPRP,0.608

row,Sequence,shrunken log2 fold change
1,RRIRWRPPRLPRPRPRPQFEPRP,1.87
2,RRIRYRPPRLPRPRPRPKHTPRP,-0.567
3,RRIRQRPPRLPRPRPRPEGNPRP,-0.00965
4,RRIRERPPRLPRPRPRPGRTPRP,0.251
5,RRIRQRPPRLPRPRPRPHWMPRP,-0.0751
6,RRIRYRPPRLPRPRPRPWIYPRP,-0.138
7,RRIRCRPPRLPRPRPRPGWAPRP,0.606
8,RRIRPRPPRLPRPRPRPVHDPRP,-0.115
9,RRIRRRPPRLPRPRPRPDTCPRP,0.133
10,RRIRGRPPRLPRPRPRPMVTPRP,1.29
11,RRIRKRPPRLPRPRPRPRPIPRP,0.824
12,RRIRMRPPRLPRPRPRPFFRPRP,0.406
13,RRIRTRPPRLPRPRPRPEDSPRP,-0.0215
14,RRIRWRPPRLPRPRPRPANFPRP,0.106
15,RRIRWRPPRLPRPRPRPVIMPRP,-0.273
16,RRIRLRPPRLPRPRPRPIDCPRP,-0.00194
17,RRIRTRPPRLPRPRPRPYNNPRP,-0.429
18,RRIRKRPPRLPRPRPRPCYAPRP,0.083
19,RRIRLRPPRLPRPRPRPDDDPRP,0.129
20,RRIRPRPPRLPRPRPRPAGYPRP,-0.189
21,RRIRSRPPRLPRPRPRPWGPPRP,0.101
